Patent publication US20060286636A1

Tests used:
[1] = target: mouse VEGFR-2/Fc chimeric receptor (mouse) (UniProt P35918); assay: competition plate binding assay: cold competitor against 125I-VEGF165 on immobilized VEGFR-2 (KDR)/Fc, scintillation counting
[2] = target: mouse VEGFR-1/Fc chimeric receptor (mouse) (UniProt P35969); assay: competition plate binding assay: cold competitor against 125I-VEGF165 on immobilized VEGFR-1 (Flt-1)/Fc, scintillation counting
[3] = target: rat Neuropilin-1/Fc chimeric receptor (rat) (UniProt Q9QWJ9); assay: competition plate binding assay, cold competitor against 125I-VEGF165 on immobilized rat neuropilin-1/Fc, without heparin
rat Neuropilin-1/Fc chimeric receptor (rat), sequence (Q9QWJ9 22-854, stated change not applied): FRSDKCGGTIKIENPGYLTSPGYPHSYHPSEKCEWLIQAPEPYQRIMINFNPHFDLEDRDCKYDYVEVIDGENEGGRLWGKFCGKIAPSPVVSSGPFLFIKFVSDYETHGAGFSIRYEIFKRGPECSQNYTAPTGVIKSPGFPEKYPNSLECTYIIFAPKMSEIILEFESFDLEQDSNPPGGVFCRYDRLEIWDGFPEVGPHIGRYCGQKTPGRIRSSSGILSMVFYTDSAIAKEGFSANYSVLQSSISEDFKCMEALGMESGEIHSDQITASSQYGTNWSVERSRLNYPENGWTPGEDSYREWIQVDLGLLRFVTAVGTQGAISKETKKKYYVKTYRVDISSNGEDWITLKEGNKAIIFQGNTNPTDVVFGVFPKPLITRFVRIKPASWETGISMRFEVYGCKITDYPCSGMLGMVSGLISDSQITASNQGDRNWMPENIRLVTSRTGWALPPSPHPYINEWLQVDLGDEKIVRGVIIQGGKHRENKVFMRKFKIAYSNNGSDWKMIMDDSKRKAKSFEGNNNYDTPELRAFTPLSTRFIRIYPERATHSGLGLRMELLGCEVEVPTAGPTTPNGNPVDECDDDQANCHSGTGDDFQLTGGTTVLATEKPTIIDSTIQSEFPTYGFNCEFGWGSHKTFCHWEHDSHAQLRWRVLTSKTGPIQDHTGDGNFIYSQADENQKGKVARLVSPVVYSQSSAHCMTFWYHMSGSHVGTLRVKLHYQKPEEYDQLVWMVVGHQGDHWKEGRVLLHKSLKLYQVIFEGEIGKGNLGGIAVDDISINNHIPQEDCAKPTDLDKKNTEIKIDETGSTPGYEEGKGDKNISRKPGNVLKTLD

mouse VEGFR-1/Fc chimeric receptor (mouse), sequence (P35969 23-759, stated change not applied): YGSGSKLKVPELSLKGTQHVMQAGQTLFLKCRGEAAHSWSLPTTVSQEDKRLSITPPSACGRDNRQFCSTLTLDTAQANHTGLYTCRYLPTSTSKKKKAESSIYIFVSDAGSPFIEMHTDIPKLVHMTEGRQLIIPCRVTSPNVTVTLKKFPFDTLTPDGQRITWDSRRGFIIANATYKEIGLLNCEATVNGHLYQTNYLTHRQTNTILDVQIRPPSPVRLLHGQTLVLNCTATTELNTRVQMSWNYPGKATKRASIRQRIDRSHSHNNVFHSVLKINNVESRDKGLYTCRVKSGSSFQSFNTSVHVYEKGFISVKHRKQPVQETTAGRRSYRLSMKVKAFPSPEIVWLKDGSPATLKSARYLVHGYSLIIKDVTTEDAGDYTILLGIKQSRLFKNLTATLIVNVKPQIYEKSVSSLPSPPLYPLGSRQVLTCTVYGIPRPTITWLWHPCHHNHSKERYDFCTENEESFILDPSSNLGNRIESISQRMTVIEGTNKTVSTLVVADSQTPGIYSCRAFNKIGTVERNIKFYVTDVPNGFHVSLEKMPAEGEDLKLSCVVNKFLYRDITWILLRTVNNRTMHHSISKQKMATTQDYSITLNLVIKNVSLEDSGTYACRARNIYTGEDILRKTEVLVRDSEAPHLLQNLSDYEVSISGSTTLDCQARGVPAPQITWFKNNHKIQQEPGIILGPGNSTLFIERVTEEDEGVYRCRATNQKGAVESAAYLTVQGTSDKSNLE
mouse VEGFR-2/Fc chimeric receptor (mouse), sequence (P35918 20-762, stated change not applied): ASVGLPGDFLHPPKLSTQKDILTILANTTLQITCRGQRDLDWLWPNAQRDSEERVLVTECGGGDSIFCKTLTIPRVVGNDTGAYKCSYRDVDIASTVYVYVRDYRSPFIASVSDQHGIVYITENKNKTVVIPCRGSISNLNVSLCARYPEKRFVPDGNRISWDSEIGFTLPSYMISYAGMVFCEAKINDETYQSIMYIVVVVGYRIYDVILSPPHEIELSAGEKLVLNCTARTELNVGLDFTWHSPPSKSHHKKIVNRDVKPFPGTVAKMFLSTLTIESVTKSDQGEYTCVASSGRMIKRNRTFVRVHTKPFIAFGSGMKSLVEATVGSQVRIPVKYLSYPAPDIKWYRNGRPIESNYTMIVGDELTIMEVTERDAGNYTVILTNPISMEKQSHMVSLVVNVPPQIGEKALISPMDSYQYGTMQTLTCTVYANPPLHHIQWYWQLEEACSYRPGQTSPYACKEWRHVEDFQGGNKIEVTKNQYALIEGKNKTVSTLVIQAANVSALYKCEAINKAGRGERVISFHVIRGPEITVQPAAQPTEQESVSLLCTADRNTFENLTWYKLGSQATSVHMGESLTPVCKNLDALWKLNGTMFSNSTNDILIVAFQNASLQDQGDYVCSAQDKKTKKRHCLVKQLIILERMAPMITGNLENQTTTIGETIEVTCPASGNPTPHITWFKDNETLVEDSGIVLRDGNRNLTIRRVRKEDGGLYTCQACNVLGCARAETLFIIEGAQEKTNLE

VEGF164 double mutant R14A/R49A (from UniProt P15692 207-395) (ligand)
IC50 (read off the curve) [1]: 0.08 nM
IC50 (read off the curve) [2]: 0.09 nM

VEGF164 mutant R13A/R14A/R46A/R49A (from UniProt Q00731 27-190) (ligand)
fold reduction of binding affinity compared to VEGF164 [3]: 115 fold

VEGF164 triple mutant R13A/R14A/R49A (from UniProt P15692 207-395) (ligand)
IC50 (read off the curve) [1]: 0.08 nM
IC50 (read off the curve) [2]: 0.2 nM
